The supplement of paper PMC10567573

B1: OAS1 (parent)
chain: TPAKSLDKFIEDYLLPDTCFRMQI

Variants of: B1
Test: protein stability index of a GFP-peptide fusion (GPS, HEK-293T) (PSI 1-6); higher = more stable
Conditions: c terminus: a fixed tail appended
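Further: lentivirally expressed fusions sorted by FACS into six bins by GFP to DsRed ratio, PSI derived from sequencing read proportions per bin multiplied by bin number.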

Protein stability index of substitutions, site by site:
C19: G 2.44; H 2.96; I 4.78; K 1.59; L 2.02; N 3.42; P 2.68; Q 2.3; R 3.1; T 2.24; V 3.28; W 3.2; Y 3.22
F20: A 2.23; C 2.15; D 2.43; E 1.97; G 1.74; H 1.47; I 3.6; K 2.4; L 2.2; M 3.12; N 1.95; P 1.75; Q 1.58; R 2.8; S 2.28; T 2.21; V 2.97; W 3.38; Y 2.56
R21: A 3.28; D 1.56; F 2.13; G 2.33; H 3.05; I 2.93; K 2.46; L 3.64; M 2.31; N 2.73; P 1.31; Q 3.37; S 3.4; T 3.86; V 3.2; W 1.43; Y 2.44
M22: A 1.93; C 2.94; D 2.1; E 2.23; F 1.35; G 2.51; H 2.28; I 3.42; K 1.98; L 2.39; N 1.99; P 2.03; Q 1.5; R 1.94; S 1.64; T 2.21; V 2.23; W 2.45; Y 2.9
Q23: A 3.37; C 3.21; D 2.73; E 2.6; F 2.13; G 3.25; H 3.27; I 2.22; K 1.54; L 3.03; M 3.2; N 1.42; P 1.99; R 3.21; S 5.04; T 2.48; V 2.56; W 3.07; Y 3.27
I24: A 1.74; C 2.23; D 2.47; E 1.85; F 2.76; G 1.55; H 2.22; K 1.99; L 2.15; M 1.7; N 1.76; P 2.12; Q 1.67; R 2.43; S 1.84; T 1.46; V 2; W 2.39; Y 1.56
